Test results: US20240307453A1, “METHODS FOR CONTROLLING BLEEDING IN A SUBJECT AFFLICTED WITH HERMANSKY PUDLAK SYNDROME USING PLATELET DERIVATIVE COMPOSITIONS” (Cellphire, Inc., priority 2023, published 2024)

Experiments:
[1] = test system: phosphatidylserine (PS); experiment: FPH thrombin generation response to PS blocking by lactadherin; type: biochemical, human
Experimental: Lactadherin (Haematologic Technologies, haemtech.com) was thawed per manufacturer instructions. FPHs were incubated with lactadherin at room temperature for 30 minutes at a concentration of 0, 25, 50, 100, and 200 μg/ml. 60 mM GPRP (BACHEM, bachem.com), thrombin (Sigma Aldrich, sigmaaldrich.com) and Octoplas (Octophrama, octopharma.com) were thawed according to manufacturer's guidelines. CLARIOstarPlus was used to perform TGA. A master mix of Octaplas, PRP reagent (Diagnostica Stago, Cat. No. 86196), and GPRP was prepared in a ratio of 14:3:1, respectively. Flu substrate and Fluo-buffer were combined according to manufacturer's guidelines to create FluCa (Diagnostica Stago, stago.com). Master mix and the FluCa solution were placed in the 37° C. air incubator with agitation for 45±5 minutes. […] 10 μl of each sample was dispensed into selected wells of a 96-well plate (Corning, corning.com) by reverse pipetting. TGA dilution buffer for thrombin was used in the thrombin standard ladder. CLARIOstarPlus injectors 1 and 2 were primed with master mix and FluCa solution with 250 μl, then the injector was placed in the active position. The CLARIOstarPlus TGA program was loaded with parameters for TGA assay with injectors set to add 90 μl of master mix and 40 μl of FluCa solution to each well. Plate was inserted to be read.

[2] = test system: phosphatidylserine (PS) surface on FPH; experiment: T-TAS of FPH with increasing dose of lactadherin; type: biochemical, human; conditions: highest lactadherin concentration (200 μg/mL), FPH 8×10^4 cells/μl
Experimental: Cells were adjusted to 8×10^4 cells/μl by diluting in Octaplas and in preparations of either 0, 100, or 200 μg/mL of lactadherin and incubated for 30 minutes at room temperature before acquisition on T-TAS® (Zacros®, zacros.con.co.jp). Samples (480 μl) were normalized to the above counts and then transferred to microcentrifuge tubes containing 20 ul of CaCTI (CaCl2 and corn trypsin inhibitor). The CaCTI-treated samples were transferred to sample reservoirs on a T-TAS®. The sample reservoirs were then inserted into the AR microfluidic chips and acquired on the T-TAS. […] This confirms the necessity of retaining the negatively charged PS surface on FPH to generate thrombin.

B1: lactadherin: lactadherin used to block PS expression (protein, UniProt Q95114 19-427, looked up)
Lactadherin: ASGDFCDSSLCLHGGTCLLNEDRTPPFYCLCPEGFTGLLCNETEHGPCFPNPCHNDAECQVTDDSHRGDVFIQYICKCPLGYVGIHCETTCTSPLGMQTGAIADSQISASSMHLGFMGLQRWAPELARLHQTGIVNAWTSGNYDKNPWIQVNLMRKMWVTGVVTQGASRAGSAEYLKTFKVAYSTDGRQFQFIQVAGRSGDKIFIGNVNNSGLKINLFDTPLETQYVRLVPIICHRGCTLRFELLGCELNGCTEPLGLKDNTIPNKQITASSYYKTWGLSAFSWFPYYARLDNQGKFNAWTAQTNSASEWLQIDLGSQKRVTGIITQGARDFGHIQYVAAYRVAYGDDGVTWTEYKDPGASESKIFPGNMDNNSHKKNIFETPFQARFVRIQPVAWHNRITLRVELLGC
thrombin generation of FPH ([1]; lactadherin 0, 25, 50, 100, 200 μg/ml): decreasing thrombin generation | maximum peak time of thrombin generation of FPH ([1]; lactadherin 0-200 μg/ml, 1:64 dilution): increasing maximum peak time | effect on time to thrombus formation of FPH [2]: approximately doubled the time to thrombus formation
